Assay results reported in patent US20090123474A1, “COMBINATION OF ANGIOPOIETIN-2 ANTAGONIST AND OF VEGF-A, KDR AND/OR FLTL ANTAGONIST FOR TREATING CANCER” (ASTRAZENECA AB, priority 2005, published 2009).

How the values were obtained:
[1] = molecular target: T1, Angiopoietin-2 binding to Tie-2 (Homo sapiens, UniProt O15123); assay: Competitive binding assay (modified ELISA): inhibition of Angiopoietin-2 binding to Tie-2
T1 construct: purchased R&D Systems, Inc. BT623 (Angiopoietin-2, biotinylated); 313-TI-100 (Tie-2/Fc)
T1 sequence (O15123 19-496): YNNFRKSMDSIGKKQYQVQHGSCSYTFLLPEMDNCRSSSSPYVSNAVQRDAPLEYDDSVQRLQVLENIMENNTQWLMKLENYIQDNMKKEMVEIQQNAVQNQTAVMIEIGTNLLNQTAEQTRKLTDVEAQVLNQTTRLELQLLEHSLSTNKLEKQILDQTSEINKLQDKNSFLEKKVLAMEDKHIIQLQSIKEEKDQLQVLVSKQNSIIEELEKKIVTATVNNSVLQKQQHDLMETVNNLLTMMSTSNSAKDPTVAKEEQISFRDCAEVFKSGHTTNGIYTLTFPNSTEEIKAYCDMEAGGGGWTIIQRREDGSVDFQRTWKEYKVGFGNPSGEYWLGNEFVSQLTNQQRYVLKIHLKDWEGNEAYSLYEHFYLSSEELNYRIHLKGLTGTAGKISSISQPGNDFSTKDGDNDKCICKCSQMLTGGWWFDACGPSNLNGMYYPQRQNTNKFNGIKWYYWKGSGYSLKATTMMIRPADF
Experimental: As discussed above, Angiopoietin-2 exerts its biological effect by binding to the Tie-2 receptor. Monoclonal antibodies that inhibited Angiopoietin-2/Tie-2 binding were identified by a competitive binding assay using a modified ELISA. The mAb used were products of micro-purification from 50 ml of exhaustive supernatants of the hybridoma pools that were specific for Angiopoietin-2 (see above). 96-well Nunc Immplates™ were coated with 100 μl of recombinant human Tie-2/Fc fusion protein (R&D Systems, Inc., Cat. No. 313-TI-100) at 4 μg/ml by incubating overnight at 4° C. The plates were washed four times using Phosphate Buffer Saline (PBS) with a Skan™ Washer 300 station (SKATRON). The wells were blocked by 100 μl of ABX-blocking buffer (0.5% BSA, 0.1% Tween, 0.01% Thimerosal in PBS) for 1 hour.
Biotinylated recombinant human Angiopoietin-2 (R&D Systems, Inc. Cat. No. […] The plates were incubated at room temperature for two hours before the unbound molecules were washed off. Bound biotinylated Angiopoietin-2 was then detected using 100 μl/well of Streptavidin-HRP conjugate at 1:200 by incubating at room temperature for half an hour. After washing twice, the bound Streptavidin was detected by HRP substrate (R&D Systems, Cat. No. DY998). The plates were incubated for 30 minutes before 450 stop solution (100 μl/well, BioFX, Cat# BSTP-0100-01) was added to terminate the reaction. The light absorbance at 450 nm was determined by a Spectramax Plus reader.
Soluble recombinant Tie-2/Fc fusion protein at 10-fold molar excess to Angiopoietin-2 was used as a positive control. At this concentration, Tie-2/Fc inhibited binding of Angiopoietin-2 to immobilized Tie-2 by 80%.
To quantitate the inhibitory activities of the mAb on Angiopoietin-2 binding to Tie-2, the titer was determined for purified mAbs from the top candidates using a competitive binding assay. Each concentration of the mAb was tested in duplicate. The concentration-response relationship was found by curve fitting using Graphpad Prism™ graphic software (non-linear, Sigmoid curve). The maximal inhibition (efficacy) and IC50 (potency) were calculated by the software.

[2] = system: human SW620 colon tumour xenografts; assay: SW620 xenograft efficacy study; assay type: in vivo; settings: 3.19.3 10 mg/kg 2×wk i.p., DC101 15 mg/kg 2×wk i.p., 3 weeks
Experimental: The anti-tumor activity of mAb 3.19.3 was evaluated in combination with monoclonal antibody DC101 which is directed against VEGFR-2/KDR, in the SW620 colorectal cancer xenograft model. Briefly, SW620 cells were cultured under routine tissue culture conditions in flasks until the cells reached sub-confluence. Immunodeficient 8-10 week old NCr nude mice were used, and cell suspensions containing approximately 1×10^6 cells were injected subcutaneously into the right flank of the mice. After the tumour volumes reached 100 mm^3, the mice were randomized in groups and the treatments were initiated. The mAb 3.19.3 10 mg/kg in saline was injected intraperitoneally, twice per week for 3 weeks. The mAb DC101 15 mg/kg in saline was also injected intraperitoneally, following the same schedule of twice per week for 3 weeks. The dimensions of each tumor were measured twice per week. The volume of the tumor was calculated as: Volume=Length×(Width)^2×0.5 (cm^3).

B1: mAb 3.19.3: fully human anti-Angiopoietin-2 monoclonal antibody, variable regions SEQ ID NO: 5-8; also binds Angiopoietin-1 (antibody, V domains shown)
VH: QVQLVESGGGVVQPGRSLRLSCAASGFTFTNYGMHWGRQAPGKGLEWVAVISHDGNNKYYVDSVKGRFTISRDNSKNTLYLQMNSLRAEDTAVYYCAREGIDFWSGLNWFDPWGQGTLVTVSSA
VL: EIVLTQSPGTLSLSPGERATLSCRASQSITGSYLAWYQQKPGQAPRLLICGASSWATGIPDRFSGSGSGTDFTLTISRLEPEDFAVYYCQQYSSSPITFGQGTRLEIKR
[1]; potency, competitive binding of Angiopoietin-2 to Tie-2, purified mAb
  EC50: 0.7976 µg/mL
[1]; ratio of bound Angiopoietin-2 with mAb (30 μg/ml) versus without mAb
  Efficacy*: 0.3945
[2]
  tumour inhibition: 48%
